Each block holds one binder with its values, some of them ahead of it.
Legend:
HLA-A*0101 (human) [1] = test: competition with 125I-labelled probe peptide for purified HLA-A*0101, gel filtration; relative to standard peptide; conditions: remark: other sources report otherwise
[2] = target: T1, HLA-DR3 (DRB1*0301) (human); test: competition binding assay, purified HLA, 125I-labelled probe peptide, gel filtration; conditions: remark: other sources report otherwise
T1 chain 1: not shown
T1 chain 2: not shown

[3] = target: HLA-A*2401 (purified HLA class I molecule) (human); test: competition with 125I-labelled standard peptide for purified HLA, gel filtration; conditions: scale: ratio
HLA-DRB1*1302 (human) = target: T2, HLA-DRB1*1302 (human); test: inhibition of 125I probe peptide binding to purified HLA-DR, gel filtration; conditions: remark: other sources report otherwise
T2 chain 1: not shown
T2 chain 2: not shown

[4] = target: T1, HLA-DR3 (DRB1*0301) (human); test: competition with 125I-labelled probe peptide on purified HLA-DR, gel filtration; IC50 of standard peptide / IC50 of test peptide; conditions: remark: other sources report otherwise
HLA-DRB1*1101 (human) [5] = target: T3, HLA-DRB1*1101 (human); test: competition with 125I-labelled standard peptide, purified HLA-DR, gel filtration; conditions: remark: other sources report otherwise
T3 chain 1: not shown
T3 chain 2: not shown

HLA-DRB1*1101 (human) [6] = target: T3, HLA-DRB1*1101 (human); test: inhibition of 125I probe peptide binding to purified HLA-DR, gel filtration; conditions: remark: other sources report otherwise
HLA-A*0201 (human) [7] = test: competitive inhibition of 125I-labeled probe peptide binding to purified HLA-A*0201; conditions: remark: other sources report otherwise
HLA-A*6802 (human) [8] = test: competition with 125I probe peptide for purified HLA; conditions: remark: other sources report otherwise
HLA-A*0201 (human) [9] = test: inhibition of 125I-labelled probe peptide binding to purified HLA, gel filtration; conditions: remark: other sources report otherwise; scale: ratio
HLA-DRB1*0701 (human) [10] = target: T4, HLA-DRB1*0701 (human); test: competition with 125I probe peptide, purified HLA; conditions: remark: other sources report otherwise
T4 chain 1: not shown
T4 chain 2: not shown

HLA-DRB1*0101 (human) [11] = target: T5, HLA-DRB1*0101 (human); test: competition with 125I probe peptide, purified HLA; conditions: remark: other sources report otherwise
T5 chain 1: not shown
T5 chain 2: not shown

HLA-DRB1*0701 (human) [12] = target: T4, HLA-DRB1*0701 (human); test: inhibition of 125I probe peptide binding to purified HLA-DR, gel filtration; conditions: remark: other sources report otherwise
HLA-DRB1*0101 (human) [13] = target: T5, HLA-DRB1*0101 (human); test: as above; conditions: remark: other sources report otherwise
HLA-DRB1*0101 (human) [14] = target: T5, HLA-DRB1*0101 (human); test: competition with 125I-labelled standard peptide, purified HLA-DR, gel filtration; conditions: remark: other sources report otherwise
HLA-B*0702 (human) = test: competition with 125I-labelled probe peptide for purified HLA, gel filtration; conditions: scale: ratio
HLA-DRB1*0301 (human) = target: T6, HLA-DRB1*0301 (human); test: competition with 125I-labeled standard peptide, purified HLA-DR, gel filtration; conditions: remark: other sources report otherwise
T6 chain 1: not shown
T6 chain 2: not shown

HLA-A*0301 (human) = test: inhibition of 125I-labelled probe peptide binding to purified HLA-A*0301, gel filtration; ratio to standard peptide 941.12 ([..], 11 nM); conditions: remark: other sources report otherwise
HLA-A*0101 (human) [15] = test: competition with 125I-labelled probe peptide for purified HLA-A*0101, gel filtration; conditions: remark: other sources report otherwise; scale: ratio
HLA-A*1101 (human) = test: inhibition of 125I-labelled probe peptide binding to purified HLA-A*1101, gel filtration; conditions: remark: other sources report otherwise
[16] = target: HLA-A*0101 (purified HLA class I molecule) (human); test: competition with 125I-labelled standard peptide on purified HLA-A*0101, gel filtration; conditions: remark: other sources report otherwise
HLA-A*6802 (human) [17] = test: competition for purified HLA vs 125I-labelled probe peptide, gel filtration; conditions: remark: other sources report otherwise
HLA-A*0101 (human) [18] = test: competition with 125I-labelled probe peptide for purified HLA-A*0101, gel filtration; ratio = IC50 of standard peptide 944.02 / IC50 of test peptide; conditions: remark: other sources report otherwise
HLA-A*3101 (human) = test: competition with 125I-labelled standard peptide for purified HLA; gel filtration; conditions: remark: other sources report otherwise
HLA-A*0201 (human) [19] = test: competition for purified HLA vs 125I-labelled probe peptide, gel filtration; conditions: remark: other sources report otherwise
HLA-A*6802 (human) [20] = test: competition with 125I-labelled probe peptide for purified HLA, gel filtration; conditions: remark: other sources report otherwise
HLA-DR3 (human) = target: T7, HLA-DR3 (human); test: competitive inhibition of 125I-labeled probe peptide binding to purified HLA-DR3; conditions: remark: other sources report otherwise
T7 chain 1: not shown
T7 chain 2: not shown

HLA-B*5401 (human) = test: competition vs 125I-labeled standard peptide, purified HLA; conditions: remark: other sources report otherwise
HLA-B*5301 (human) = test: as above; conditions: remark: other sources report otherwise

Binder: FESMPNPEGRY [HER2/neu peptide, position 279, 11 amino acids]
relative binding ratio (IC50 of standard peptide / IC50 of test peptide) (relative binding ratio) (HLA-A*0101 (human) [1]): 0.0049

Binder: LQRYSEDPTVPLPSE [HER2/neu peptide … (position 1109)]
relative binding ratio (ratio to standard peptide) [2]: 0.027

Binder: IMVKCWMI [HER2/neu peptide, position 954, 8 amino acids]
relative binding ratio [3]: 0.021

Binder: FRELVSEFSRMARDP [HER2/neu peptide … (position 969)]
relative binding ratio [4]: 0.071
relative binding ratio (ratio to standard peptide) [2]: 0.071

Binder: VLVKSPNHV [HER2/neu peptide, position 851, 9 amino acids]
relative binding ratio (HLA-A*0201 (human) [9]): 0.0002

Binder: LQGLPREYVNARHCL [HER2/neu peptide … (position 547)]
relative binding ratio (ratio to standard peptide) [2]: -0.0027

Binder: IFHKNNQL [HER2/neu peptide, position 172, 8 amino acids]
relative binding ratio [3]: -0.0003

Binder: LPQPPICTIDV (modifications not checked) [HER2/neu peptide, position 941, 11 amino acids]
relative binding ratio (HLA-B*0702 (human)): 0.0032

Binder: PESFDGDPASNTAPL [HER2/neu peptide … (position 378)]
relative binding ratio (ratio to standard peptide) [2]: -0.0027

Binder: PESFDGDPASNTAPL [HER2/neu DR supermotif exemplary peptide … (position 378)]
relative binding ratio (ratio (standard IC50 / test IC50)) (HLA-DRB1*0301 (human)): -0.0027

Binder: IWIPDGENVKI [HER2/neu peptide, position 738, 11 amino acids]
relative binding ratio [3]: 0.0027

Binder: LQGLPREYVNARHCL [HER2/neu DR supermotif exemplary peptide … (position 547)]
relative binding ratio (ratio (standard IC50 / test IC50)) (HLA-DRB1*0301 (human)): -0.0027

Binder: LQRYSEDPTVPLPSE [HER2/neu DR supermotif exemplary peptide … (position 1109)]
relative binding ratio (ratio (standard IC50 / test IC50)) (HLA-DRB1*0301 (human)): 0.027

Binder: FSPAFDNLYY [HER2/neu peptide, position 1213, 10 amino acids]
relative binding ratio (IC50 of standard peptide / IC50 of test peptide) (HLA-A*0301 (human)): 0.0005
relative binding ratio (HLA-A*0101 (human) [15]): 5.5
relative binding ratio (IC50 of standard peptide / IC50 of test peptide) (relative binding ratio) (HLA-A*1101 (human)): 0.001
relative binding ratio (IC50 of standard peptide / IC50 of test peptide) [16]: 5.5
relative binding ratio (IC50 of standard peptide / IC50 of test peptide) (relative binding ratio) (HLA-A*0101 (human) [1]): 5.5

Binder: FTHQSDVWSY [HER2/neu peptide, position 899, 10 amino acids]
relative binding ratio (IC50 of standard peptide / IC50 of test peptide) (HLA-A*0301 (human)): 0.0003
relative binding ratio (HLA-A*0101 (human) [15]): 2.7
relative binding ratio (IC50 of standard peptide / IC50 of test peptide) (relative binding ratio) (HLA-A*1101 (human)): 0.0005
relative binding ratio (HLA-A*0101 (human) [18]): 2.7
relative binding ratio (IC50 of standard peptide / IC50 of test peptide) (relative binding ratio) (HLA-A*0101 (human) [1]): 2.7

Binder: GPKHSDCLA [HER2/neu peptide, position 246, 9 amino acids]
relative binding ratio (HLA-B*0702 (human); remark: other sources report otherwise): 0.0001

Binder: TLQGLGISWL [HER2/neu peptide, position 444, 10 amino acids]
relative binding ratio (HLA-A*0201 (human) [9]): 0.0011

Binder: CYGLGMEHLREVRAV [HER2/neu peptide … (position 342)]
relative binding ratio [4]: 0.0083
relative binding ratio (ratio to standard peptide) [2]: 0.0083

Binder: TLSPGKNGV [HER2/neu peptide, position 1172, 9 amino acids]
relative binding ratio (HLA-A*0201 (human) [9]): 0.0002

Next, values leading:

IC50 (HLA-DRB1*1302 (human)): 2500 nM
Binder: ETELRKVKVLGSGAF [Her2/neu.717]

IC50 (HLA-DRB1*1302 (human)): 73 nM
Binder: ASPLTSIISAVVGIL [Her2/neu.648]

IC50 (HLA-DRB1*1101 (human) [5]): 43 nM
IC50 (HLA-DRB1*1101 (human) [6]): 43 nM
Binder: VLGVVFGILIKRRQQ [Her2/neu.666]

IC50 (HLA-A*0201 (human) [7]): < 500 nM
Binder: ILDEAYVMA [Her2/neu.767]

IC50 (HLA-A*6802 (human) [8]): 8000 nM
Binder: CLTSTVQLV [Her2/neu.789 …]

IC50 (HLA-DRB1*0701 (human) [10]): 86 nM
IC50 (HLA-DRB1*0101 (human) [11]): 28 nM
IC50 (HLA-DRB1*0701 (human) [12]): 86 nM
IC50 (HLA-DRB1*0101 (human) [13]): 28 nM
Binder: LSVFQNLQVIRGRIL [Her2/neu.422]

IC50 (HLA-DRB1*0101 (human) [11]): 21 nM
IC50 (HLA-DRB1*0101 (human) [13]): 21 nM
Binder: CKKIFGSLAFLPESF [Her2/neu.367]

IC50 (HLA-DRB1*0101 (human) [11]): 11 nM
IC50 (HLA-DRB1*0101 (human) [13]): 11 nM
Binder: NLELTYLPTNASLSF [Her2/neu.59]

IC50 (HLA-DRB1*0101 (human) [11]): 14 nM
IC50 (HLA-DRB1*0101 (human) [14]): 14 nM
IC50 (HLA-DRB1*0101 (human) [13]): 14 nM
Binder: SRLLGICLTSTVQLV [Her2/neu.783]

IC50 (HLA-A*0201 (human) [7]): < 500 nM
Binder: ILHNGAYSL [Her2/neu.435]

IC50 (HLA-A*0201 (human) [7]): < 500 nM
Binder: HLYQGCQVV [Her2/neu.48]

IC50 (HLA-A*6802 (human) [17]): 8000 nM
IC50 (HLA-A*0201 (human) [7]): < 500 nM
Binder: CLTSTVQLV [Her2/neu.789]

IC50 (HLA-A*6802 (human) [8]): 2000 nM
Binder: VVLGVVFGI [Her2/neu.665 …]

IC50 (HLA-DRB1*0101 (human) [11]): 58 nM
IC50 (HLA-DRB1*0101 (human) [14]): 58 nM
IC50 (HLA-DRB1*1101 (human) [5]): 3700 nM
IC50 (HLA-DRB1*0101 (human) [13]): 58 nM
IC50 (HLA-DRB1*1101 (human) [6]): 3700 nM
Binder: VWELMTFGAKPYDGI [Her2/neu.912]

IC50 (HLA-A*3101 (human)): 9000 nM
Binder: LVARNVLVK (modifications not checked) [Her2/neu.846.V2]

IC50 (HLA-A*0201 (human) [7]): < 500 nM
Binder: ALCRWGLLL [Her2/neu.5]

IC50 (HLA-A*0201 (human) [19]): 200 nM
IC50 (HLA-A*0201 (human) [7]): < 500 nM
Binder: VMAGVGSPYV [Her2/neu.773]

IC50 (HLA-A*6802 (human) [20]): 2000 nM
IC50 (HLA-A*6802 (human) [17]): 2000 nM
IC50 (HLA-A*0201 (human) [7]): < 500 nM
Binder: VVLGVVFGI [Her2/neu.665]

IC50 (HLA-DRB1*0701 (human) [10]): 2500 nM
IC50 (HLA-DRB1*0101 (human) [11]): 22 nM
IC50 (HLA-DRB1*0701 (human) [12]): 2500 nM
IC50 (HLA-DRB1*0101 (human) [13]): 22 nM
Binder: TVQLVTQLMPYGCLL [Her2/neu.793]

IC50 (HLA-DR3 (human)): < 1000 nM
Binder: WDQLFRNPHQALLHT [Her2/neu.482]

IC50 (HLA-A*3101 (human)): 500 nM
Binder: LLDHVRENR [Her2/neu.806]

IC50 (HLA-B*5401 (human)): 29 nM
IC50 (HLA-B*5301 (human)): 490 nM
Binder: KPYDGIPA [Her2/neu.921, 8-mer]

From patent US20040018971A1
